Paper PMC2894972, “Protein-Protein Interaction Antagonists as Novel Inhibitors of Non-Canonical Polyubiquitylation” (PLoS ONE, 2010)

Molecular target: T1, Ubc13 (human, UniProt P61088 1-152)
T1 construct: Ubc13, ubiquitin-conjugating enzyme (E2), human; also called purified Ubc13; source: recombinant, purified
T1 sequence (looked up): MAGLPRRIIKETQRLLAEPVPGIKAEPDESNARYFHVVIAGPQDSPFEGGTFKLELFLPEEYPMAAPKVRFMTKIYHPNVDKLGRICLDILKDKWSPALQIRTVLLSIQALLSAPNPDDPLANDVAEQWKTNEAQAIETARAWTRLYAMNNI
Test: SPR; Uev1 immobilised on a Biacore CM5 chip (1179,1 RU); Ubc13 in the mobile phase; 10 mM HEPES, 0.15 M NaCl, pH 7.4; Biacore T100
Conditions: both partners purified

- Kd: 1 nM
B1: Uev1 (natural protein)
chain: not shown
notes: Uev1, ubiquitin-conjugating enzyme variant 1, human; also called recombinant Uev1; source: recombinant, purified
